Assay [1] concerns the target T1, PP6c C-terminal peptide meL305, ac-IPPRTTTPYFL-CH3 (α-carboxymethylated) (human, SMILES …).
T1 construct: also called PP6 meLeu305
T1 peptide: Ac-IPPRTTTPYFL-OMe
Put plainly: ELISA, peptide coated at 2 µg/ml, hybridoma supernatant 1:50, values normalized to meL309, N=7. The source says:
(§1) FIG. 9: Monoclonal antibody 7C10-C5 detects α-carboxymethylated PP2Ac C-terminal peptides with >10-fold higher signal intensity than the α-carboxymethylated PP4c and PP6c C-terminal peptides in ELISA. Nunc Medisorp 96-well ELISA flat-bottom plates were coated with PP2Ac peptides L309 (ac-[…]) (SEQ ID NO:18), meL309 (ac-[…]-CH3) (SEQ ID NO:18), PP4c peptides L307 (ac-[…]) (SEQ ID NO:20), meL307 (ac-[…]-CH₃) (SEQ ID NO:20), PP6c peptides L305 (ac-[…]) (SEQ ID NO:22) or meL305 (ac-[…]-CH₃) (SEQ ID NO:22) at 2 μg/ml in TBS or TBS only (Neg) at 4° C. over-night. After washing once with TBS, the wells were incubated with 2% BSA in TBS for 1 h at RT. After washing once with TBS, the wells were incubated with single clone hybridoma cell culture supernatant, clone 7C10-C5 1:50 for 1 h at RT. After washing twice with TBS, wells were incubated with anti-mouse and anti rabbit HRP-coupled secondary antibody for 1 h at RT, followed by washing 3× in PBS. Bound antibodies were detected by colorimetric reaction with 3,3′,5,5′-Tetramethylbenzidine as substrate, and absorbance was measured at 450 nm. Values were normalized to meL309 which was set to 1. Average and standard deviation of N=7 experiments are shown. […] Statistical significance was assessed using ANOVA followed by Tukey's HSD as a post-hoc test. […]
In general terms: An ELISA detects its analyte on a solid surface through an enzyme-linked reagent.

The target of assay [2] is T2, PP4c C-terminal peptide meL307, ac-PSKKPVADYFL-CH3 (α-carboxymethylated) (human, SMILES …).
T2 construct: also called mePP4c; PP4 Me
T2 peptide: Ac-PSKKPVADYFL-OMe
The description is as above.
Description: as §1

The target of assay [3] is T3, carboxymethylated PP4c C-terminal peptide (ac-[…]-CH3) (Homo sapiens, UniProt P60510).
T3 construct: The following 11-mer peptides corresponding to the carboxymethylated or non-methylated carboxy-terminus of PP2A and PP4 catalytic subunits were used as antigens
Put plainly: Surface plasmon resonance (Biacore T200), steady state analysis, carboxymethylated PP4c peptide. As to conditions: PP4 Me peptide, 360 sec contact time, 40 μL/min. It counts as binding. How it is done: The differential affinity of anti-carboxymethylated PP2Ac antibodies, 7C10-C5 and 2A10, to carboxymethylated PP2A catalytic subunit versus noncarboxymethylated PP2A catalytic subunit was determined by surface plasmon resonance (SPR) on a Biacore T200 (GE Healthcare) at the Core Facility Biomolecular & Cellular Analysis (University of Natural Resources and Life Sciences Vienna BOKU). The affinity of 7C10-C5 for carboxymethylated and noncarboxymethylated catalytic subunit of PP4 (PP4c), a PP2A-related phosphatase, was also determined. […] The KD of the binding of 7C10-C5 (or 2A10) to non-carboxymethylated PP2Ac or PP4c could not be determined because at the highest analyte sample concentration (5000 nM) only very weak binding signals were detected indicating KD values of at least >5000 nM or higher. […]
SPR experiments were performed with the BiacoreT200 instrument (Cytiva). […] The sensorgrams obtained were analyzed with BiacoreT200 Evaluation Software (version 3.1). […]
On the technique in general: Surface plasmon resonance follows binding to a sensor surface in real time, without labels.

B1: 7C10-C5 monoclonal antibody (antibody, V domains shown)
VH: DVQLQESGPGLVKPSQSLSLTCSVTGYSITSGYYWNWIRQFPGNKLEWMGYISYDGSNNYNPSLKNRISITRDTSKNQFFLKLNSVTTEDTATYYCAGRFAYWGQGTLVTVSA
VL: DVLMTQTPLSLPVSLGDQASISCRSSQSIVHSNGNTYLEWYLQKPGQSPKLLIYKVSNRFSGVPDRFSGSGSGTDFTLKINRVEAEDLGVYYCFQGSHVPWTFGGGTKLEIK
notes: Used as hybridoma culture supernatant (ELISA, Western blot, IHC) or at 50 µg/mL (SPR); also called 7C10 X63; clone 7C10-C5
In the case of B1, the “fold-change of ELISA signal, meL309 (PP2A) over meL305 (PP6)” value in assay [1] turned out to be 16.2 fold. Moreover, the “fold-change of ELISA signal, meL309 (PP2A) over meL307 (PP4)” value in assay [2] turned out to be 10.1 fold.

B2: 7C10-C5: α-carboxymethylation specific mouse monoclonal IgG1 antibody from single clone hybridoma 7C10-C5 (DSM ACC3350) (antibody)
heavy: MYRMQLLSCIALSLALVTNSDVQLQESGPGLVKPSQSLSLTCSVTGYSITSGYYWNWIRQFPGNKLEWMGYISYDGSNNYNPSLKNRISITRDTSKNQFFLKLNSVTTEDTATYYCAGRFAYWGQGTLVTVSAAKTTAPSVYPLAPVCGDTTGSSVTLGCLVKGYFPEPVTLTWNSGSLSSGVHTFPAVLQSDLYTLSSSVTVTSSTWPSQSITCNVAHPASSTKVDKKIEPRGPTIKPCPPCKCPAPNLLGGPSVFIFPPKIKDVLMISLSPIVTCVVVDVSEDDPDVQISWFVNNVEVHTAQTQTHREDYNSTLRVVSALPIQHQDWMSGKEFKCKVNNKDLPAPIERTISKPKGSVRAPQVYVLPPPEEEMTKKQVTLTCMVTDFMPEDIYVEWTNNGKTELNYKNTEPVLDSDGSYFMYSKLRVEKKNWVERNSYSCSVVHEGLHNHHTTKSFSRTPGK
light: MDMRVPAQLLGLLLLWLSGARCDVLMTQTPLSLPVSLGDQASISCRSSQSIVHSNGNTYLEWYLQKPGQSPKLLIYKVSNRFSGVPDRFSGSGSGTDFTLKINRVEAEDLGVYYCFQGSHVPWTFGGGTKLEIKADAAPTVSIFPPSSEQLTSGGASVVCFLNNFYPKDINVKWKIDGSERQNGVLNSWTDQDSKDSTYSMSSTLTLTKDEYERHNSYTCEATHKTSTSPIVKSFNRNEC
modifications: Amino acid sequence of the recombinant 7C10-C5 heavy chain; Amino acid sequence of the recombinant 7C10-C5 light chain
Turning to B2, in assay [3], the Rmax is listed as 20.17 RU.
